Results from patent US20220226430A1 (TEXAS A AND M UNIVERSITY SYSTEM, published 2022).

Molecular target: Clostridium difficile toxin B (TcdB) from C. difficile strain VPI 10463 (ribotype 087) (Clostridium difficile strain VPI 10463, UniProt P18177 2-2366)
Assay: cell-based or functional assay

Chain of Clostridium difficile toxin B (TcdB) from C. difficile strain VPI 10463 (ribotype 087) (P18177 2-2366): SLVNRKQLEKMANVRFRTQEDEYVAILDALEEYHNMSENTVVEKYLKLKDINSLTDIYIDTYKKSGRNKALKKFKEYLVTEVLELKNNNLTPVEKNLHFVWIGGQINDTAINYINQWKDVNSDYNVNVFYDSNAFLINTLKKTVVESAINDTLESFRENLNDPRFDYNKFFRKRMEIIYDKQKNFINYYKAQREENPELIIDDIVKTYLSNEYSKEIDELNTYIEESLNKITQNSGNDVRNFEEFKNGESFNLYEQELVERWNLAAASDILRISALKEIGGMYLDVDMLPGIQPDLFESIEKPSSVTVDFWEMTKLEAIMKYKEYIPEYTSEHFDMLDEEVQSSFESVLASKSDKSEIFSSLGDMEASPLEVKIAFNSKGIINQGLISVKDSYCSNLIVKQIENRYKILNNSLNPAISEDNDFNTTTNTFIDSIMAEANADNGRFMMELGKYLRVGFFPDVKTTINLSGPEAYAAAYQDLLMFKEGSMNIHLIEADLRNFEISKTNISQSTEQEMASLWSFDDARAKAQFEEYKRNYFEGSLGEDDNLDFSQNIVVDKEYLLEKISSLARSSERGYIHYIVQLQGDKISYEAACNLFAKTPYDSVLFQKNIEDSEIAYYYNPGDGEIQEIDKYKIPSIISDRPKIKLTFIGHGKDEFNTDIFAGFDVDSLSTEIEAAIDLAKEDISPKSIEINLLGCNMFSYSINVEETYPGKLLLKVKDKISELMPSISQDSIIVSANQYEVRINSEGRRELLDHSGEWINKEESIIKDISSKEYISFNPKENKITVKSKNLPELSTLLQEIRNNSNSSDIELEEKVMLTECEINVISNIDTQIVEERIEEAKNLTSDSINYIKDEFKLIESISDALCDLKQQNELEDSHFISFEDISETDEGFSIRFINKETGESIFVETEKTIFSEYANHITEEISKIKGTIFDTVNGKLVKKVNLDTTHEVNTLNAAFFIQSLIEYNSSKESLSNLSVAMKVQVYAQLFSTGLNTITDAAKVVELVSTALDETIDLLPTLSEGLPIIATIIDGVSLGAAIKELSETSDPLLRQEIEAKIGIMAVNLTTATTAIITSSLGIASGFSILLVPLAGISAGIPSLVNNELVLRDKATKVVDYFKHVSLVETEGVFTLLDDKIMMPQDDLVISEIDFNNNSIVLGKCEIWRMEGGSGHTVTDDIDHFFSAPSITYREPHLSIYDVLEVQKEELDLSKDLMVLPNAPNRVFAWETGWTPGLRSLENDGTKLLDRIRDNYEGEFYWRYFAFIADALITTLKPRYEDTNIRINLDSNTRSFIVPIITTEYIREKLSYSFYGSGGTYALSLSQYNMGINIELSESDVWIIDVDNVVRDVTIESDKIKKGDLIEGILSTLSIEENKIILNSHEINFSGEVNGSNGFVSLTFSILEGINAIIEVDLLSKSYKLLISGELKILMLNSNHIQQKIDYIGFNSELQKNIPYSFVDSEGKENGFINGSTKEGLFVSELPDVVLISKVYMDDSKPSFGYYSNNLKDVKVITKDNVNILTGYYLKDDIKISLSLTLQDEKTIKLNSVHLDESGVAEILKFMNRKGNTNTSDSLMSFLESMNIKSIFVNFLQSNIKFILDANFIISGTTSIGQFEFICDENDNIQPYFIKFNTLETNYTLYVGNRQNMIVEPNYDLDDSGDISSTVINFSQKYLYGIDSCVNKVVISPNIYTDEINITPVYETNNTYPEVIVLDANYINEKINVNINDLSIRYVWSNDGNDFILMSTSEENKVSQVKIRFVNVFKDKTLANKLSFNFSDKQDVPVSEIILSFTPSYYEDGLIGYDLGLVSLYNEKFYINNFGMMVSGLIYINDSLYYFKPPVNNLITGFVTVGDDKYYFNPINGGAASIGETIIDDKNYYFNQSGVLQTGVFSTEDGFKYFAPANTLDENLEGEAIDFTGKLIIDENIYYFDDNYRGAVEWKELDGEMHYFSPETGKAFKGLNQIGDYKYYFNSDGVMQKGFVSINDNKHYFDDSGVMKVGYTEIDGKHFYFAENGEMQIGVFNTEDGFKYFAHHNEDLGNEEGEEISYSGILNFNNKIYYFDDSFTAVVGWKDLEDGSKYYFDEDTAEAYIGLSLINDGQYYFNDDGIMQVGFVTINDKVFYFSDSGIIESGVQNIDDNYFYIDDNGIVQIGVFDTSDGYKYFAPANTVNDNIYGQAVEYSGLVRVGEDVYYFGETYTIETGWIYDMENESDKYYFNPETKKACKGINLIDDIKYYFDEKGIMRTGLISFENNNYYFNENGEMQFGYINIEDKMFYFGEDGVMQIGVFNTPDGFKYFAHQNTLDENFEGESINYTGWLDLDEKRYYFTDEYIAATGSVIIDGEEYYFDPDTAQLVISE

B1: DARPin 3.5B (designed binder, not shown: small tags and cut ends)
chain: GSDLGKKLLEAARAGQDDEVRILMANGADVNAKDTFGETPLHLAAWKGHLEIVEVLLKYGADVNASDLLGRTPLHLAAWRGHLEIVEVLLKNGADVNASDTGGYTPLHLAAALGHLEIVEVLLKHGADVNAQDKFGKTAFDISIDNGNEDLAEILQSSS
B1 was tested, and the “toxin-neutralization EC50” value was 13.3 nM.

B2: DARPin 1.2E (designed binder, not shown: small tags and cut ends)
chain: GSDLGKKLLEAARAGQDDEVRILMANGADVNAYDARGVTPLHLAAFSGHLEIVEVLLKNGADVNAIDVIGMTPLHLAAWIGHLEIVEVLLKHGADVNAVDRSGNTPLHLAAWLGHLEIVEVLLKYGADVNAQDKFGKTAFDISIDNGNEDLAEILQSSS
For B2, the “EC50 of TcdB neutralization (Vero cells, CellTiterGlo)” value was 2.4 nM.

B3: DARPin U3 (designed binder, not shown: small tags and cut ends)
chain: GSDLGKKLLEAARAGQDDEVRILMANGADVNADDRIGMTPLHLAAIGGHLEIVEVLLKNGADVNADDVHGRTPLHLAAGRGHLEIVEVLHGADVNAPDRWGRTPLHLAAHHGHLEIVEVLLKYGADVNAQDKFGKTAFDISIDSGNEDLAEILQSSS
B3 was tested, and the “toxin-neutralization EC50 (Vero cells)” value was over 25 nM.

B4: DARPin 1.4E (designed binder, not shown: small tags and cut ends)
chain: GSDLGKKLLEAARAGQDDEVRILMANGADVNATDHLGVTPLHLAAVLGHLEIVEVLLKHGADVNAYDILGRTPLHLAAWRGHLEIVEVLLKYGADVNADDTSGTTPLHLAAGEGHLEIVEVLLKYGADVNAQDKFGKTAFDISIDNGNEDLAEILQSSS
B4 was tested, and the “EC50 of TcdB neutralization (Vero cells, CellTiterGlo)” value was 3 nM.
